# Results from the supplement of paper PMC10065799, “High-throughput profiling of sequence recognition by tyrosine kinases and SH2 domains using bacterial peptide display” (eLife, 2023).
# Molecular target: c-Src SH2
# Assay: SH2 binding enrichment of the phosphorylated peptide, bacterial display (enrichment ratio); higher = better substrate or ligand; peptides without Tyr show the background
# 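For SH2 binding enrichment of the phosphorylated peptide, bacterial display in this document: peptide library displayed on the E. coli surface as eCPX fusions, selected cells deep-sequenced, score is each peptide's frequency after selection divided by its frequency in the input.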
row,Sequence,SH2 binding enrichment
1,SHNKFYMLVAR [MFSD8_Y134_YF],1.04
2,ADPQEYIPLPA [JAKtide_2014],0.571
3,KDFTIYNPNLL [VANGL1_Y290],0.511
4,EYLHKYKGFKI [SYNE1_Y6953_Q6951H],0.527
5,TFEFRYLEDQD [CNOT3_Y746_R750Q_YF],0.602
6,DELDKYSEVLK [TPM1_Y60_A63V],1.72
7,TQRPFYKGGGG [TYROBP_Y112_YF],0.65
8,TMETKYDNISR [SETDB2_Y477_V473M],3.56
9,IAINKYEVSLI [MYO7A_Y2136_G2137E],0.59
10,NGPDVYVLPLT [AATK_Y93],0.552
11,PVQAAYQQVVA [HBB_Y131_K133Q],1.35
12,VIKDKYPKAHY [APTX_Y209_R213H],0.956
13,SVTCTYYPALN [TP53_Y126_S127Y],0.373
14,KKDGPYDVVVL [PARK7_Y67_E64D],1.07
15,AVLALYNSTRD [TGFB1_Y81],0.688
16,NGTVSYAIVAG [CDH23_Y1672_T1671S],3.88
17,FRKNIYNVKST [SYNE2_Y575_YF],0.723

row,Sequence,SH2 binding enrichment
1,MAPQMYESHLP [NCAPD2_Y6_F8S],0.71
2,EFISECCGEII [EZH2_Y641_Y641C],0.501
3,VMLENYSNLLS [ZFP69_Y109_V113L],0.778
4,VGEGPYLISDL [ABCC12_Y7],0.414
5,VFDHIYTTQSD [RET_Y928_L923V],0.738
6,SGDITYGQFAQ [PLCG1_Y210],0.53
7,KRAIGYYSATS [FAM120A_Y327],1.41
8,ALVDTYCRHNF [HLA-DRB1_Y107_A103L_YF],0.711
9,TLCLCYKETEE [ATP8B1_Y658_I661T],0.496
10,SSNLFYRCLTA [CNGA3_Y169_W171C_YF],0.399
11,CEHRGHLFLAI [TEK_Y897_Y897H_YF],0.867
12,TTICKYITPME [GUCY2C_Y839_S840I],0.661
13,TAALWYIYSHT [ENG_Y612],0.6
14,FLAVGYHKPYI [IDS_Y225_H229Y],1.51
15,GQKTLYSFFSP [UNG_Y8],0.589
16,QDEHGYISRCF [HSPB1_Y133],0.445

# Molecular target: Grb2 SH2 (UniProt P62993)
# Sequence (P62993 whole entry, looked up): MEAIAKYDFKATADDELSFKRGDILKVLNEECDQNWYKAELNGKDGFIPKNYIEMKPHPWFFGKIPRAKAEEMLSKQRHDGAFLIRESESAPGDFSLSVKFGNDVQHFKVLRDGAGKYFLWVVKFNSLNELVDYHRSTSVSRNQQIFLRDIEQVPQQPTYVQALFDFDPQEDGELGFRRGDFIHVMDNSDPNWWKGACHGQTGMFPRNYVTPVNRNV
# Assay: as above
row,Sequence,SH2 binding enrichment
1,SHNKFYMLVAR [MFSD8_Y134_YF],1.4
2,ADPQEYIPLPA [JAKtide_2014],1
3,KDFTIYNPNLL [VANGL1_Y290],0.703
4,EYLHKYKGFKI [SYNE1_Y6953_Q6951H],0.861
5,TFEFRYLEDQD [CNOT3_Y746_R750Q_YF],0.908
6,DELDKYSEVLK [TPM1_Y60_A63V],0.837
7,TQRPFYKGGGG [TYROBP_Y112_YF],0.947
8,TMETKYDNISR [SETDB2_Y477_V473M],1.01
9,IAINKYEVSLI [MYO7A_Y2136_G2137E],0.805
10,NGPDVYVLPLT [AATK_Y93],0.804
11,PVQAAYQQVVA [HBB_Y131_K133Q],0.541
12,VIKDKYPKAHY [APTX_Y209_R213H],1.19
13,SVTCTYYPALN [TP53_Y126_S127Y],0.68
14,KKDGPYDVVVL [PARK7_Y67_E64D],0.855
15,AVLALYNSTRD [TGFB1_Y81],0.835
16,NGTVSYAIVAG [CDH23_Y1672_T1671S],0.873
17,FRKNIYNVKST [SYNE2_Y575_YF],1.18

row,Sequence,SH2 binding enrichment
1,MAPQMYESHLP [NCAPD2_Y6_F8S],0.76
2,EFISECCGEII [EZH2_Y641_Y641C],0.954
3,VMLENYSNLLS [ZFP69_Y109_V113L],0.899
4,VGEGPYLISDL [ABCC12_Y7],0.786
5,VFDHIYTTQSD [RET_Y928_L923V],0.902
6,SGDITYGQFAQ [PLCG1_Y210],0.716
7,KRAIGYYSATS [FAM120A_Y327],0.864
8,ALVDTYCRHNF [HLA-DRB1_Y107_A103L_YF],0.991
9,TLCLCYKETEE [ATP8B1_Y658_I661T],0.783
10,SSNLFYRCLTA [CNGA3_Y169_W171C_YF],0.808
11,CEHRGHLFLAI [TEK_Y897_Y897H_YF],1.41
12,TTICKYITPME [GUCY2C_Y839_S840I],0.73
13,TAALWYIYSHT [ENG_Y612],0.781
14,FLAVGYHKPYI [IDS_Y225_H229Y],0.98
15,GQKTLYSFFSP [UNG_Y8],1.04
16,QDEHGYISRCF [HSPB1_Y133],0.662

# Molecular target: SHP2-C SH2
# Assay: as above
row,Sequence,SH2 binding enrichment
1,SHNKFYMLVAR [MFSD8_Y134_YF],1.72
2,ADPQEYIPLPA [JAKtide_2014],0.809
3,KDFTIYNPNLL [VANGL1_Y290],0.537
4,EYLHKYKGFKI [SYNE1_Y6953_Q6951H],0.63
5,TFEFRYLEDQD [CNOT3_Y746_R750Q_YF],0.865
6,DELDKYSEVLK [TPM1_Y60_A63V],0.665
7,TQRPFYKGGGG [TYROBP_Y112_YF],0.7
8,TMETKYDNISR [SETDB2_Y477_V473M],0.876
9,IAINKYEVSLI [MYO7A_Y2136_G2137E],0.981
10,NGPDVYVLPLT [AATK_Y93],0.743
11,PVQAAYQQVVA [HBB_Y131_K133Q],1.06
12,VIKDKYPKAHY [APTX_Y209_R213H],1.11
13,SVTCTYYPALN [TP53_Y126_S127Y],0.693
14,KKDGPYDVVVL [PARK7_Y67_E64D],0.895
15,AVLALYNSTRD [TGFB1_Y81],0.55
16,NGTVSYAIVAG [CDH23_Y1672_T1671S],46.5
17,FRKNIYNVKST [SYNE2_Y575_YF],0.927

row,Sequence,SH2 binding enrichment
1,MAPQMYESHLP [NCAPD2_Y6_F8S],0.495
2,EFISECCGEII [EZH2_Y641_Y641C],0.739
3,VMLENYSNLLS [ZFP69_Y109_V113L],0.928
4,VGEGPYLISDL [ABCC12_Y7],0.663
5,VFDHIYTTQSD [RET_Y928_L923V],0.864
6,SGDITYGQFAQ [PLCG1_Y210],0.557
7,KRAIGYYSATS [FAM120A_Y327],0.821
8,ALVDTYCRHNF [HLA-DRB1_Y107_A103L_YF],0.845
9,TLCLCYKETEE [ATP8B1_Y658_I661T],0.672
10,SSNLFYRCLTA [CNGA3_Y169_W171C_YF],0.518
11,CEHRGHLFLAI [TEK_Y897_Y897H_YF],1.06
12,TTICKYITPME [GUCY2C_Y839_S840I],0.598
13,TAALWYIYSHT [ENG_Y612],0.918
14,FLAVGYHKPYI [IDS_Y225_H229Y],1.14
15,GQKTLYSFFSP [UNG_Y8],1.6
16,QDEHGYISRCF [HSPB1_Y133],0.763

# Tested on: c-Abl (mouse);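 also: 11-residue human phosphosite peptides and single-mutation variants displayed on the E. coli surface, counted by deep sequencing, each peptide's frequency after selection divided by its frequency in the unselected input library; frequency after pTyr selection over input frequency; kinase dosed for 20-30% of maximal phosphorylation in three min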
# Assay: phosphorylation enrichment, bacterial display (enrichment ratio); higher = better substrate or ligand; peptides without Tyr show the background
row,Sequence,phosphorylation enrichment
1,SHNKFYMLVAR [MFSD8_Y134_YF],0.705
2,ADPQEYIPLPA [JAKtide_2014],0.628
3,KDFTIYNPNLL [VANGL1_Y290],0.71
4,EYLHKYKGFKI [SYNE1_Y6953_Q6951H],0.996
5,TFEFRYLEDQD [CNOT3_Y746_R750Q_YF],0.997
6,DELDKYSEVLK [TPM1_Y60_A63V],0.907
7,TQRPFYKGGGG [TYROBP_Y112_YF],0.624
8,TMETKYDNISR [SETDB2_Y477_V473M],0.665
9,IAINKYEVSLI [MYO7A_Y2136_G2137E],0.598
10,NGPDVYVLPLT [AATK_Y93],0.645
11,PVQAAYQQVVA [HBB_Y131_K133Q],0.677
12,VIKDKYPKAHY [APTX_Y209_R213H],0.561
13,SVTCTYYPALN [TP53_Y126_S127Y],1.01
14,KKDGPYDVVVL [PARK7_Y67_E64D],0.629
15,AVLALYNSTRD [TGFB1_Y81],0.702
16,NGTVSYAIVAG [CDH23_Y1672_T1671S],0.591
17,FRKNIYNVKST [SYNE2_Y575_YF],0.39

row,Sequence,phosphorylation enrichment
1,MAPQMYESHLP [NCAPD2_Y6_F8S],0.437
2,EFISECCGEII [EZH2_Y641_Y641C],1.24
3,VMLENYSNLLS [ZFP69_Y109_V113L],0.595
4,VGEGPYLISDL [ABCC12_Y7],0.768
5,VFDHIYTTQSD [RET_Y928_L923V],0.44
6,SGDITYGQFAQ [PLCG1_Y210],0.495
7,KRAIGYYSATS [FAM120A_Y327],0.437
8,ALVDTYCRHNF [HLA-DRB1_Y107_A103L_YF],0.683
9,TLCLCYKETEE [ATP8B1_Y658_I661T],1.29
10,SSNLFYRCLTA [CNGA3_Y169_W171C_YF],1.06
11,CEHRGHLFLAI [TEK_Y897_Y897H_YF],0.806
12,TTICKYITPME [GUCY2C_Y839_S840I],0.56
13,TAALWYIYSHT [ENG_Y612],0.748
14,FLAVGYHKPYI [IDS_Y225_H229Y],1.16
15,GQKTLYSFFSP [UNG_Y8],2.05
16,QDEHGYISRCF [HSPB1_Y133],0.861
